± gives the standard deviation.
Assay: protein stability index of a GFP-peptide fusion (GPS, HEK-293T) (PSI 1-6); higher = more stable
Details: c terminus: a fixed tail appended
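Also: 24-mer peptide tiles fused after GFP, lentivirally expressed, FACS-sorted into six equal bins by GFP/DsRed ratio, decoded by Illumina sequencing, PSI is the read-weighted mean bin number.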

| Sequence | protein stability index (treatment: DMSO) | protein stability index (treatment: MLN4924 1 uM, 8 h) |
| --- | --- | --- |
| PATSPLVLAIPRRLRVELECEEGE [TRIM35] | 4.92 ± 0.22 | 4.78 ± 0.13 |
| PAVEACENRRKVLYQRAPRNIHRH [TCF25] | 3.88 ± 0.23 | 3.81 ± 0.15 |
| PAVENKQQIGDAIRMIVRGTLGSC [PLK2] | 3.03 ± 0.32 | 3.03 ± 0.19 |
| PDGVCLSGGRGPQGDKAIREQGPR [PBXIP1] | 5.21 ± 0.14 | 4.88 ± 0.35 |
| PDIRTKDIEDVFYKYGAIRDIDLK [SRSF1] | 3.59 ± 0.12 | 3.62 ± 0.24 |
| PESETSILLSWTPPRSDTIANYEL [PTPRD] | 3.09 ± 0.35 | 2.96 ± 0.39 |
| PETHIFTAPEEVPKVSDQALVSAH [DMRTC1] | 4.96 ± 0.34 | 4.92 ± 0.11 |
| PFKFHMLHSGLVHGLAFWFDVAFI [CARM1] | 2.75 ± 0.15 | 2.97 ± 0.2 |
| PFSEFFKLRFNRKKKGMYRKAITE [PWWP2B] | 2.35 ± 0.43 | 2.9 ± 0.27 |
| PFTVSPNTHVSQVFNLFRTMGLRH [CLCN6] | 2.39 ± 0.45 | 2.45 ± 0.38 |
| PGAHGRFMPQGAGGHTREARIQTL [RSAD1] | 3.63 ± 0.35 | 3.67 ± 0.29 |
| PGNGTHGLSPEEKEQLSNDRETQE [ELOA2] | 5.73 ± 0.074 | 5.75 ± 0.16 |
| PGSCGAGAPSPGSSDVSTAGTGAS [ELF3] | 4.98 ± 0.29 | 5.08 ± 0.17 |
| PHKERYFDRVDENNPEYLRERNMA [ADD1] | 4.47 ± 0.36 | 4.69 ± 0.14 |
| PIGCDGVLFSTHTLDKCGICQGDG [ADAMTSL2] | 3.62 ± 0.26 | 3.79 ± 0.47 |
| PKFKKWCDDYFFIAHRGERRGIGG [CPOX] | 2.54 ± 0.14 | 2.56 ± 0.26 |
| PLCNFNITESFTELARIVLLRHGM [RAB40B] | 2.8 ± 0.87 | 2.19 ± 0.97 |
| PLFYPGIRAGRKNAAPLTIRPPTD [TRIM39] | 3.56 ± 0.25 | 3.58 ± 0.15 |
| PLLCPGCQGQPQGKAVVSHSKGHK [ELOA2] | 4.12 ± 0.43 | 4.53 ± 0.42 |
| PLRSSLPISLQATPATPATLSASS [TFE3] | 4.47 ± 0.1 | 4.57 ± 0.14 |
| PLSPPTAPDRATAVATASRLGPYV [TRIB3] | 4.72 ± 0.26 | 4.65 ± 0.091 |
| PNHLGGGAVVLGAESHASKDVAID [STX5] | 5.1 ± 0.37 | 5.15 ± 0.17 |
| PPKRMLGADREFIEARRRALKRFV [SNX8] | 3.36 ± 0.43 | 3.62 ± 0.17 |

| Sequence | protein stability index (treatment: DMSO) | protein stability index (treatment: MLN4924 1 uM, 8 h) |
| --- | --- | --- |
| PPLWAASAAGHLDVVRSLLRRGAS [FEM1A] | 3.55 ± 0.28 | 3.43 ± 0.28 |
| PPPPPGLPSDGDHQVPTTAGNKAA [WASL] | 5.46 ± 0.33 | 5.43 ± 0.12 |
| PPPPPPPPAELKAEPGFEPADCKR [CEBPB] | 5.52 ± 0.16 | 5.4 ± 0.28 |
| PPYSRLSPRDEYKPLDLSDSTLSY [SMAD6] | 3.89 ± 0.18 | 3.84 ± 0.24 |
| PQESAILQLFHQDGTFSPVTLALF [CLCN6] | 2.45 ± 0.46 | 2.42 ± 0.32 |
| PQGISPVSQHWATWALYNLVSVYP [ZER1] | 3 ± 0.57 | 2.88 ± 0.32 |
| PQLVSSAREGSSEPWLPLTDGRSP [PLEKHN1] | 4.83 ± 0.25 | 4.58 ± 0.085 |
| PQQTWASPAEVVDLTLDEDSRRKY [C18orf25] | 5.1 ± 0.3 | 5.13 ± 0.14 |
| PQVWREAATQVFFALGLGFGGVIA [SLC6A17] | 3.78 ± 0.85 | 3.4 ± 0.82 |
| PRKVSTCTDHELENHSMYCVQCKM [TRIM9] | 4.53 ± 0.27 | 4.74 ± 0.33 |
| PRLFKEWNITKLSIEYDSEPFGKE [CRY1] | 3.06 ± 0.33 | 3.46 ± 0.39 |
| PRSCSSGPAGPYLLSKKGALQSRA [PLEKHN1] | 3.96 ± 0.52 | 4.29 ± 0.39 |
| PSPPTSPPWGLGPGAGDPAPGIGP [MYCL] | 4.7 ± 0.18 | 4.72 ± 0.069 |
| PSTLGRCKAFSTCVSHLIIVTVHY [OR10K2] | 3.07 ± 0.41 | 2.89 ± 0.5 |
| PVALLLAQHKDRSTQLEMQLEKPK [MNAT1] | 3.84 ± 0.19 | 3.8 ± 0.12 |
| PVASSGEFFGSASQPAVELVSGSQ [CLINT1] | 4.57 ± 0.16 | 4.82 ± 0.21 |
| PVHLVDKLPLPSTLRSHLKSFSMA [RAB40A] | 2.6 ± 0.085 | 2.63 ± 0.19 |
| PVMNGGVQTWTQPRLCYLVKEGGS [PDZK1] | 2.75 ± 0.23 | 3.09 ± 0.27 |
| PVRTTNKISKQFVAPADVRRLLSY [ZSWIM9] | 2.44 ± 0.17 | 2.84 ± 0.13 |
| PVVGSTRRLYEKKIFEYETQRRRL [EMD] | 3.16 ± 0.25 | 3.18 ± 0.06 |
| PWKKCCFSGDGEYIVAGSARQHAL [RBBP5] | 2.14 ± 0.27 | 2.36 ± 0.22 |
| QAFCCENDINILRVSNPGRLAELL [GADD45A] | 2.74 ± 0.36 | 2.82 ± 0.34 |
| QAIIESCSRQFPEFQERARKRIRT [NOL4L] | 3.69 ± 0.27 | 4.09 ± 0.21 |

| Sequence | protein stability index (treatment: DMSO) | protein stability index (treatment: MLN4924 1 uM, 8 h) |
| --- | --- | --- |
| QAKEELARMLREYQELMSLKLALD [KRT71] | 2.61 ± 0.37 | 2.77 ± 0.47 |
| QALGTHRPVNKLAELQCEVAALRE [RASAL3] | 3.81 ± 0.38 | 3.75 ± 0.41 |
| QAQAVQTEQAVALLRDRTGQQSDT [SCARA5] | 5.35 ± 0.34 | 5.19 ± 0.23 |
| QAQKDPKKDRPLARRKSELPQDPH [PPP2R5C] | 5.12 ± 0.17 | 5.34 ± 0.17 |
| QDCGFEHLVPVIEMWADQLTSLKD [CEP70] | 2.76 ± 0.39 | 2.94 ± 0.53 |
| QEAEEPKARVLRSKSLCHDEIENL [CDC25B] | 5.37 ± 0.089 | 5.57 ± 0.23 |
| QECLKQLAIKKQQHIDNITQIEDA [TRIM14] | 4.93 ± 0.19 | 4.72 ± 0.22 |
| QELPPYNGFGLVEDSAQNCFALIP [EFHC1] | 3.38 ± 0.18 | 3.4 ± 0.24 |
| QERERVLTHFSRRYCQCNPDDSTS [PSD2] | 3.88 ± 0.14 | 3.93 ± 0.14 |
| QGDKAIREQGPREQEPELSFLKQK [PBXIP1] | 5.44 ± 0.33 | 5.42 ± 0.16 |
| QGGGNGQQQQAMSFAILRIIRLVR [KCNA4] | 2.46 ± 0.28 | 2.67 ± 0.24 |
| QGWMNLLNMAKKSVDIVSSHWDLN [PLD5] | 2.9 ± 0.45 | 3.46 ± 0.69 |
| QIEERHQEKKRKFLESTDSFNNEL [SMARCE1] | 4.82 ± 0.25 | 5.08 ± 0.37 |
| QIENLNIQVEDIRIRAILSTYRKR [LOXL2] | 2.67 ± 0.28 | 2.85 ± 0.37 |
| QITSRVVSAATQLRHFFLVEDLVD [RTN2] | 2.83 ± 0.24 | 3 ± 0.27 |
| QKNFGLYVQEKRDGLKRRQQLEEE [RAD54B] | 4.7 ± 0.32 | 4.66 ± 0.2 |
| QKQQAPRMDTPPPEERLEKQNEKL [CCDC89] | 5.46 ± 0.44 | 5.62 ± 0.2 |
| QKVAVYRALQAALAESGGSPDVLQ [TRADD] | 2.31 ± 0.36 | 2.4 ± 0.46 |
| QKVTCFYQPAPYFAAEARYPIYVI [TENT5D] | 2.89 ± 0.4 | 2.54 ± 0.49 |
| QLISRMEYVHSKNLIYRDVKPENF [CSNK1G3] | 2.37 ± 0.24 | 2.42 ± 0.17 |
| QLPGLLNFGEFKCSDSDKKCHLWT [CLCN6] | 2.56 ± 0.43 | 2.45 ± 0.36 |
| QLQPTSIEKEVFPIMAKEGQLYAM [GMPPB] | 3.1 ± 0.27 | 2.96 ± 0.5 |
| QLYCEKVQGLMKEYLLSFPAGKTP [VPS39] | 2.27 ± 0.16 | 2.41 ± 0.16 |

| Sequence | protein stability index (treatment: DMSO) | protein stability index (treatment: MLN4924 1 uM, 8 h) |
| --- | --- | --- |
| QNGEEGTSTPEDKESGQEGVDSMA [SMARCE1] | 5.44 ± 0.17 | 5.65 ± 0.29 |
| QPAFTGIKGKEGSALTEGAKEEGG [EPB41L3] | 5.5 ± 0.071 | 5.65 ± 0.23 |
| QPGLSFLNLGSGTGYLSSMVGLIL [PCMTD2] | 2.12 ± 0.15 | 2.28 ± 0.27 |
| QPPPAPPKKIMPEAHSHYLYGHML [PPFIA4] | 2.76 ± 0.26 | 2.91 ± 0.22 |
| QQLYRHGKAYRFLFGFSAVSIMYL [JAGN1] | 2.82 ± 0.2 | 3.28 ± 0.93 |
| QQPPPPRRAGAACTLRQKLIFSPC [WEE1] | 2.79 ± 0.46 | 2.94 ± 0.099 |
| QSIIAIIRAMGRLKIDFGDSARAD [GNAI1] | 2.44 ± 0.53 | 2.29 ± 0.93 |
| QSLTQRLHALKLRSPDASPSRAPP [GNAS] | 4.06 ± 0.17 | 4.14 ± 0.22 |
| QSSADGSQPPKKKPKTTNIELQGV [RBBP5] | 5.09 ± 0.16 | 5.26 ± 0.36 |
| QTASRSLVLSEDRKSVRYTRQKKN [TRIM15] | 4.83 ± 0.27 | 4.8 ± 0.24 |
| QTGDPTSPIKLSPTSPVYRGSSSG [MTUS2] | 4.76 ± 0.26 | 4.82 ± 0.2 |
| QTNKPALRAVRQRSEFTLMAKRIG [STX5] | 3.15 ± 0.29 | 3.35 ± 0.25 |
| QTRRASALIDRPAPYFERSSSKRY [EPB41L3] | 4.18 ± 0.24 | 4.17 ± 0.3 |
| QVAPLTHVFQRQKSELSDGIAILV [TRIM55] | 2.26 ± 0.49 | 2.26 ± 0.22 |
| QVITLDQVLDEVIPIHGKGNFPTM [TENT5D] | 2.29 ± 0.24 | 2.32 ± 0.25 |
| QWLRPHVSTKEQILDLLVLEQFLS [ZSCAN9] | 2.07 ± 0.5 | 2.22 ± 0.44 |
| QYEKMAEKNRKDAEDWFFSKTEEL [KRT17] | 4.68 ± 0.18 | 4.86 ± 0.18 |
| RAPQGCSGVDECARQEGLTFFGTE [PBXIP1] | 4.01 ± 0.35 | 4.3 ± 0.55 |
| RAVQGPEETVTQDCLQLIADSETP [TNFSF13B] | 5.38 ± 0.2 | 5.38 ± 0.15 |
| RCGYRLVRRQRSADEQLHCAGKAK [ESR2] | 3.69 ± 0.36 | 3.91 ± 0.26 |

From the supplement of paper PMC10567573
